Data reported in patent publication US20230355708A1.

Legend:
Yu gp120 = experiment: SPR
S1 (SARS-CoV-2) = S1 (SARS-CoV-2) (UniProt P0DTC2); experiment: SPR

Row | Substance | Kd (Yu gp120) | Kd (S1 (SARS-CoV-2))
1 | P51G-CVN-HIS(OK) | 22.8 nM | –
2 | ACE2 | – | 2.4 nM
